Laboratory results from PMC3729709.

Target: recombinant soluble trimeric gp140 from the clade A Ugandan HIV-1 field isolate 94UG018 (HIV-1 clade A isolate 94UG018)
Test: SEC; final gel filtration on an SD200 column equilibrated with PBS; fractions corresponding to the gp140 trimer collected and pooled

recombinant soluble trimeric gp140 from the clade A Ugandan HIV-1 field isolate 94UG018 (natural protein)
stoichiometry N: 3
